Results on 41 sequences are retold here after the nanobody polyreactivity screen of Harvey et al. (2022).

A short description of this data set: yeast display, Sf9 membrane polyspecificity reagent, FACS + sequencing; frameworks hold sequencing errors. The method, boiled down:
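In a synthetic yeast display library (Saccharomyces cerevisiae BJ5465), nanobody expression was induced with galactose for 36–48 hours. FACS gates were set low and high (top ~1%) using anti-HA fluorescence for expression and streptavidin fluorescence for binding of the Sf9 membrane reagent. Each polyreactivity label is drawn from the gate of origin.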
For the sequence “QVQLVESGGGLVQAGGSLRLSCDASGRTFYRNDMGWYRQAPGKERELVAAISSGGSTTYADSVKGRFTISRDNAKNTVYLQMNSLKPEDTAVYYCAADFLDYWGVYGWAEYEYWGQGTQVTVSS”, the “polyreactivity (PSR sort gate)” value is recorded as “low polyreactivity”.

In the case of “QVQLVESGGGLVQAGGSLRLSCAASGSIFGPYAMGWYRQAPGKERELVAAISLGGGSTSYADSVKGRFTISRDNAKNTVYLQMNSLKPEDTAVYYCATEDFRTDTGMYYWGQGTQVTVSS”, the “polyreactivity (PSR sort gate)” value was “low polyreactivity”.

With “QVQLVESGGGLVQAGGSLRLSCAASGRIFVGYAMGWYRQAPGKERELVAAINRSGSSTYYADSVKGRFTISRDNAKNTVYLQMNSLKPEDTAVYYCNARSGNRYGPRYDYWGQGTQVTVSS”, the “polyreactivity (PSR sort gate)” value was “high polyreactivity”.

With “QVQLVESGGGLVQAGGSLRLSFAASGSIFNYNAMGWYRQAPGKERELVAAITYADSVKGRFTISRDNAKNTVYLQMNSLKPEDTAVYHCNTHYVPSFRFDYWGQGTQVTVSS”, the “polyreactivity (PSR sort gate)” value is given as “low polyreactivity”.

In the case of “QVQHVESGGGLVQAGGSLRLSCSASGRTFNFYTMGWYRQAPGKEREFVAGITSTGGSTDYADSVKGRFTISRDNAKNTVYLQMNSLKPEDTAVYYCNALRRWWEPYWTYNYWGQGTQVTVSS”, the “polyreactivity (PSR sort gate)” value is “high polyreactivity”.

With “QVQLVESCGGLVQEGGSLRLSSAASGSIRYYALGWYRQAPGKESELVAAISSRGTNTYYADSVKGSITISRDNAKNTVYLQMKSQKPEDTAVYYCNAVVGLGYNYWGQGTQVSVSS”, the “polyreactivity (PSR sort gate)” value is “high polyreactivity”.

In the case of “QVQLVESGGGLVQAGGSLGLSCAASGRTFSYYAMGWYRQAPGKERELVAAISASGGRTYYADSVKGRFTISRDNAKNTDYLQMNSLTPEDTAVYYCAAGSYQRYAFDYWGQGTQVTVSS”, the “polyreactivity (PSR sort gate)” value was “high polyreactivity”.

On to “QVQLVESGGGLVQAGGSLRLSCAASGRIFIDYAMAWYRQAPGKESELVATNTSSGGSTYYADSVKGRFTISRDNAKNTVYLLMNSLNPEDTAVYFCNKEGSYDYDYWGQGTQVTVSS”, for which the “polyreactivity (PSR sort gate)” value is listed as “low polyreactivity”.

On to “QVQLVESGGGLVQAGGSLRLSCAASGSNYSGYAMGWARQAPGKERELVAAITKSGGRTYYADSVKGRFTISRDNAKNTVYLQMNSLKPEDTAVYYCAKAYPGTYREYDYWGQGTQVTVSS”, for which the “polyreactivity (PSR sort gate)” value is reported as “high polyreactivity”.

Consider “QGQLVESGGCLVQEGGSLRLSCAASGRIFWYYTMGWYRQAPGKERELVATIRSGDRKNYADSVKGRFTISLDNAKNTVYLQMNSLKPDDTAVYYCAATRALVNTHRYYYWGQGTQVTVSS”, for which the “polyreactivity (PSR sort gate)” value is recorded as “high polyreactivity”.

On to “QVQLVESGGGLVQAGGSLRLSCAASGSTFYTYAMGWSRPAPGKERELVAAINWIGDSTYYADSVKGRFTISRDNAKNTVYLQMNSLKPEDTAVYYCAADFTLGSRTEGLHMDYWGQGTQVTVSS”, for which the “polyreactivity (PSR sort gate)” value is “high polyreactivity”.

As for “QVQLVESGGGLVQAGGSLRLSCAASGRTSYTNAMGWYRQAPGKERELVAAINYSGGSTYYADSVKGRFTISRDNAKNTVYLQMNSLKPEDTAVYYCAAERYYWYTEMGYWGQGTQVTVSS”, the “polyreactivity (PSR sort gate)” value was “high polyreactivity”.

Regarding “QVQLVESGGGLVQAGGSLRLSCAASARIIGTYAMGWYRQATGKERELVAASTRGGTTYYADSVKGRFTISRDNAKNTVYLQMNSLIPEDTAVYYCATGPAIRYDYWGQGTQVTVSS”, the “polyreactivity (PSR sort gate)” value is recorded as “low polyreactivity”.

As to “QVQLVESGGGLVQAGGSLRLSCAASGRTFRSNAMGWYRQAPGKERELVAAITRSGGNTYYADSVKGRFTISRDTAKNTVYLQMNSLKPEDTAVYYCADRYSNPWARVSGYDYWGQGTQVTVSS”, the “polyreactivity (PSR sort gate)” value is listed as “high polyreactivity”.

On to “QVQLVESGGGLVQAGGSLRLSCAASGSIFYAYAMGWYRQAPGKERELVAVISRGGITNYADSVKGRFTISRDNAKNTVYLQMNSMKPEDTAVYYCAAATSAWGYLRRYGYWGQGTQVTVSS”, for which the “polyreactivity (PSR sort gate)” value is “low polyreactivity”.

As to “QVQLVESGGGLVQAGGSLRLSCSASGSTFDTYAMGWYRKAPGKERELVAAISRSGGSTYYADSVKWRFTISRDNAKNTVYLQMNSLKPEDTAVYFCNALSGDLAGDYWGQGTQVTVSS”, the “polyreactivity (PSR sort gate)” value was “high polyreactivity”.

For “QVQLVESGGGLVQAGGSLRLSCAASGSTFFPNAMGWYRQAPGKERELVAAIRWRGGTYYADSVKGRFTISRDNAKNTVYLQMNSLKQEDTAVYYCATSVKPSYDYWGQGTQVTVSS”, the “polyreactivity (PSR sort gate)” value was “low polyreactivity”.

For “QVHLVESGGGLVQAGGSLRLSCAASGRLFGVYVMGWYRQAPGKERELVAAISWSGSHTYYADSVKGRFTISRDNAKNTVYLQMNSLKPEDTEVYYCNADSYPDYTGPGLDWYDYWGQGTQVTVSS”, the “polyreactivity (PSR sort gate)” value was “low polyreactivity”.

On to “QVQLVESGGGLVQAGGSLRLSCAASGSIFAPYAMGWYRQAPGKERELVAAISRSGGSTYYADSVKGRFTISRDNAKNTVYLQMNSLKPEDTAVYYCAVRNGLRQYRLDYWGQGTQVTVSS”, for which the “polyreactivity (PSR sort gate)” value is reported as “high polyreactivity”.

As for “QVQLVESGGGLVQAGGSLRLSCAASGRTFYSNVMGWYRQAPGKERELVAAISSSTYYADSVKGRFTISRDNANNTVYLQMNSLKPEDTAVYYCAAYSRYYPYYRYGYLGQGTQVTVSS”, the “polyreactivity (PSR sort gate)” value was “high polyreactivity”.

For “QVQLVESGGGLVQAGASLRLSCAASGRTFAYNAMGWSRQAPGKERELVATISNGGTTNYADSVKGRFTISRDNAKNTVYLQMNSLKPEDTAVYYCNRRSYTQVLMDYWGQGTQVTVSS”, the “polyreactivity (PSR sort gate)” value is on record as “high polyreactivity”.

Consider “QVQLVESGGGLVQAGGSLRLSCAASGRIFDYYAMGWYRQAPGKERELVAAITSSGGSTYYADSVKGRFTISRDNAKNTVYLQMNSLKPEDTAVYYCAAGRKVQSRRYGYWGQGTQVTVSS”, for which the “polyreactivity (PSR sort gate)” value is on record as “high polyreactivity”.

On to “QVQLVESWGGLVQAGGSLRLSCAASGRTFVTNAMGRYRQAPGTERELVAAISGSGGSTYYADSVTGRFTISRDNAKNTVYLQMNSLKPEDTAVYYCATSYSLGYARYGYWGQGTQVTVSS”, for which the “polyreactivity (PSR sort gate)” value is listed as “high polyreactivity”.

For “QVQLVESGGGLVQAGGSLRLSCAASGRIFRRYAMGWYRQAPGKERELVADITYGVDSTYYADSVKGRFTISRDNAKNTVYLQMNSLKPEDTAVYYCNADRTEDLLYRFVGVTYGYWGQGTQVSVSS”, the “polyreactivity (PSR sort gate)” value is reported as “high polyreactivity”.

With “QVQLVESGGGLVQAGGSLRLSCAASGSTFVYYTMGWYRQAPGKERELVAAINNGGSTYYADSVKGRFTISRDNAKNTVYLQMNSLKPEDTAFYYCARFTSRVSKYYWGQGSQVTVSS”, the “polyreactivity (PSR sort gate)” value was “low polyreactivity”.

For the sequence “QVQLVESGRGLVQAGGSLRLSCAASGSTFGPYAMGWYRQAPGKEREFVAGISKSTSSTYYADSVKGRFTISRDNAKNTVYLQMNSLKPEDTAVYYCAAQGGRNRGYRYYWGQGTQVTVSS”, the “polyreactivity (PSR sort gate)” value is reported as “high polyreactivity”.

Regarding “QVQHVESRGGLDPAGGSLRLSCAASGRIFRGNAMGWSSQATGKERELVASITWRGTSTYYADSVKGRFTISRDIAMNTVYLQMNSLKPEDTAVYYCNAVTQTRGYYWGQGTQVTVSS”, the “polyreactivity (PSR sort gate)” value is “high polyreactivity”.

Take “QVQLVESGGGLVQAGGSLRLTCAASGRIFTRYAMGWYRQAPGKERELVAAISYGGGGTYYADSVKGRFTISRDNAKNTVYLQMNSLKPEVTSVYYCAADPGYYSWGSSQDDYWGQGTQVTVSS”: the “polyreactivity (PSR sort gate)” value is reported as “low polyreactivity”.

For “QVQLVESGGGLVQAGGSLRLSCAASGSILRQYAMGWYRQAPGKERELVATITGDGSTNYADSVKGRFTISRDNAKNTVYLQMNSLKPEDTAVYYCNTYLTYPYPNVEVLVYGFKLDYWGQGTQVTVSS”, the “polyreactivity (PSR sort gate)” value was “low polyreactivity”.

Regarding “QVQLVESGGGLVQAGGSLRLSCAASGSILGVYTMGWDRQAPGKERELVAAITSSSSSTYADSVKGRFTISRDNAKNTVYLQMNSVIPEDTAVYYCATRGWSKQLYGGYTQYYYWGQGTQVTVSS”, the “polyreactivity (PSR sort gate)” value is on record as “high polyreactivity”.

With “QVQLVESGGGLVQAGGSLRLSCAASGRTFPKYAMGWYRQAPGKERELVAAITWRASRTYYADSVKGRFTISRDYAKITVYLQMNSLKPEDTAVYYCAAKGVGQAPKRDYWGQGTQVNVSS”, the “polyreactivity (PSR sort gate)” value was “high polyreactivity”.

Turning to “QVQLVESGGGLVQAGGSLRLSCAASGSTFYVNAMGWYRQTPGKERELVATIPSGSITDYADSVKGRFTISRDNAKNTVYLQMNSLKPEDTAVYYCAKTYVQEHGVDYWGQGTQVTVSS”, the “polyreactivity (PSR sort gate)” value is “low polyreactivity”.

For the sequence “QVQLVESGGGLVQAGGSLRLSCAASGSTFGFYAMGWYRQAPGKERELVAAIDWISGSTYYADSVKGRFTISRDNAKNTVYLQLNSLKPEDTAVYYCAAQFYYHFRYHFDWGQGTQVTVSS”, the “polyreactivity (PSR sort gate)” value was “low polyreactivity”.

Regarding “QVQLVESGGGLVQAGGSLRLSCAASGGIFDVYAMGWYRQAPGKERELVAAITASGGSTYYADSVKGRFTISRDNAKNTVYLQMNSLKPEDTAVYYCNAYYYYLFHRYDYWGQGTQVTVSS”, the “polyreactivity (PSR sort gate)” value was “low polyreactivity”.

In the case of “QVQLVESGGGLVQAGGSLRLSCAASGSIITPYTMGWDRQAPGKERELVAAISWSGATTHYADSVKGRFTISRDNAKNTVYLQMNSLKPEDTAVYYCAARWGLRSSRYYYWGQGTQVTVSS”, the “polyreactivity (PSR sort gate)” value is “high polyreactivity”.

With “QVQLVESGGGVVQAGGSLRLSCAASGRIFHDYAMGWYRQAPGKERELVAGMTSGVRTYYADSVKGRFTISRDNEKNTVYLQMNSLKPEDTAVYYCARRLSPLYDYDYWGQGTQVTVSP”, the “polyreactivity (PSR sort gate)” value was “low polyreactivity”.

On to “QVQLVESGGGLFQAGGSLRLNCAASGSIFGSYAMVWYIQAPGKELELVAAITSDGITNYADSVKGRFTISRDNEKNTDYLQMNSLKPEDTAVYYCAAPGPLGGSDYWGQGTQVTVSS”, for which the “polyreactivity (PSR sort gate)” value was “low polyreactivity”.

As to “QVQLVESGGGLVQAGGSLRLSCAASGRIFRHYGMGWYRQAPGKERELVARITRSGGSTYYADSVKGRFTISRDNAKNTVYLQMTSLKPEDTAVYYCAAFTYGESWYDYWGQGTQVTVSS”, the “polyreactivity (PSR sort gate)” value is on record as “low polyreactivity”.

Turning to “QVQLVESGGGLVQAGGSLRLSCAASGSIFAYNAMGWYRQAPGKERELVAGISSRGVSTYADSVKGRFTISRDNAKNTVYLQMNSLKPEDTAVYYCARGGYWGKRGRYDYWGQGTQVTVSS”, the “polyreactivity (PSR sort gate)” value was “low polyreactivity”.

In the case of “QVQLVESGGGLVQAGGSLRLSCAASGITFHRYDMGWYRQAPGKERELVADITWSGGSTYYADSVKGRFTISRDNAKNTVYLQMNSLKPEDTSVYYCAADASTYTYTPYDYWGQGTQVTVSS”, the “polyreactivity (PSR sort gate)” value is reported as “low polyreactivity”.

As to “QVQLVESGGGLVQAGGSLRLSCAASGFTFNVYAMGWYRQAPGKERELVARITRRGGSTYYADSVKGRFTISRDNAKNTVYLQMNSLKPEDTAVYYCNADSPVVSGRGGRRSAYLNDYWGQGTKVTVSS”, the “polyreactivity (PSR sort gate)” value was “high polyreactivity”.
